Reference: the supplement of paper PMC7125110
± gives the standard error. For part of these data: Fewer inactive variants are shown than the library holds.

B1: glmS ribozyme (parent)
chain: AUAAAAGCGCCAGAACUACAGAAAUGUAGUUGACGAGGAGGAGGUUUAUCGAAUUUUCGGCGGAUGCCUCCAAA

Columns and labels:
Conditions in all cases: with glucosamine-6-phosphate
glucosamine-6-phosphate [1] = variants of: B1; assay: kcat; higher = faster cleavage; RNA array
In short: (§1)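 A hybridised Cy3 probe tracked barcoded ribozyme variants, transcribed in situ by E. coli RNA polymerase on sequenced MiSeq chips, at 37 °C. The variants received 40 μM to 10 mM glucosamine-6-phosphate in HEPES/KCl/Mg(OAc)2 buffer. kobs came from decay fits and kcat and KM from weighted Michaelis–Menten fits.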

glucosamine-6-phosphate [2] = variants of: B1; assay: self-cleavage kobs at 160 uM GlcN6P; higher = faster cleavage; RNA array
In short: as §1

glucosamine-6-phosphate [3] = variants of: B1; assay: self-cleavage kobs at 2500 uM GlcN6P; higher = faster cleavage; RNA array
In short: as §1

glucosamine-6-phosphate [4] = variants of: B1; assay: self-cleavage kobs at 10000 uM GlcN6P; higher = faster cleavage; RNA array
In short: as §1

glucosamine-6-phosphate [5] = variants of: B1; assay: self-cleavage kobs at 640 uM GlcN6P; higher = faster cleavage; RNA array
In short: as §1

glucosamine-6-phosphate [6] = variants of: B1; assay: KM; higher = weaker cofactor use; RNA array
In short: as §1

glucosamine-6-phosphate [7] = variants of: B1; assay: self-cleavage kobs at 40 uM GlcN6P; higher = faster cleavage; RNA array
In short: as §1

Variant	kcat (glucosamine-6-phosphate [1]) [s⁻¹]	self-cleavage kobs at 160 uM GlcN6P (glucosamine-6-phosphate [2]) [s⁻¹]	self-cleavage kobs at 2500 uM GlcN6P (glucosamine-6-phosphate [3]) [s⁻¹]	self-cleavage kobs at 10000 uM GlcN6P (glucosamine-6-phosphate [4]) [s⁻¹]	self-cleavage kobs at 640 uM GlcN6P (glucosamine-6-phosphate [5]) [s⁻¹]	KM (glucosamine-6-phosphate [6]) [mM]	self-cleavage kobs at 40 uM GlcN6P (glucosamine-6-phosphate [7]) [s⁻¹]
AUAAAAGCGCCAGAACUACAGAAAUGUAGUUGACGAGGACGAGGUUUAUCGAAUUUUCGGCGGGUGCCUCCAAA	0.00107 ± 0.00027	4.29e-05 ± 1.9e-05	0.000837 ± 0.00017	0.000811 ± 9.3e-05			
AUAAAAUCGCCAGAACUACAGAAAUGUAGUUGACGAGGAGGAGGUUUAUCGGAUUUUCGGCGGAUGCCUGCAAA	3.01e-05 ± 9.2e-06						
AUAAAAGCGCCAGAAGUACAGAAAUGUAGUUGACGAGGAAGAGGUUUAUCGAAUUUUCGGCGGAUGCCUCCAAA	0.000334 ± 0.00011		0.000473 ± 0.00011	0.00027 ± 5.7e-05	0.000114 ± 2.6e-05		
AUAAAAGCGCCAGGACUACAGAAAUGUAGUUGACGAAGAGGAGGUUUAUCGAAUUUUCGGCGGAUGCCUCCAAA	0.00833 ± 0.0023	0.00027 ± 3.3e-05	0.00399 ± 0.0005	0.00564 ± 0.00066	0.00126 ± 0.00017	3.89 ± 1.4	0.000119 ± 1.7e-05
AUAAAAGCGCCAGAACUACAGAAAUGUAGCUGACGAGGAGGAGGUUUAUCGAAUUUUCGGCGGAUGGCUCCAAA	1.07e-05 ± 2.3e-06						< 1e-05
AUAAAAGCGCCAGAAAUACAGAAAUGUAGUAGACGAGGAGGAGGUUUAUCGAAUUUUCGGCGGAUGCCUCCAAA	0.0016 ± 0.00038	8.65e-05 ± 2.4e-05	0.000585 ± 0.00016	0.00119 ± 0.00027	0.000194 ± 5.1e-05	3.99 ± 1.4	
AUAAAAGCGCCACGACUACAGAAAUGUAGUUGACGAGGAGGAGGUUUAUCGAAUUUUCGGCGGAUGCCUCCAAA	0.00129 ± 0.00022	4.16e-05 ± 8.8e-06	0.000557 ± 7.3e-05	0.000855 ± 0.00013	0.000189 ± 2.5e-05	3.98 ± 0.95	
AUAAAAGCGCCAGAACUACAGAAAUGUAGUUGACGAGGAGGAGGUUUUUCGAAUUUUCGGCGGAUGCCUACAAA	1.64e-05 ± 7.1e-06		3.28e-05 ± 1.6e-05				
AUAAAAGCGCCAGAACUACAGAAAUGUAGUUGACGAGGAGGAGGUUUAUGGAAUUUUCGGCAGAUGCCUCCAAA	0.000121 ± 5.5e-05	0.000128 ± 2.4e-05	0.000168 ± 3.3e-05				3.58e-05 ± 1.1e-05
AUAAAAGCGCCAGAACUACAGAAAUGUAGAUGACGAGGAGGAGGUUUAUCGACUUUUCGGCGGAUGCCUCCAAA	0.00232 ± 0.00044	0.000107 ± 2.5e-05	0.000882 ± 0.00014	0.00196 ± 0.00049	0.000357 ± 6.9e-05	3.59 ± 0.95	
AUAAAAGCGCCAGAAUUACAGAAAUGUAGUUGACGAGGAGGAGGUUUAUCGAAUCUUCGGCGGAUGCCUUCAAA	0.000581 ± 5.6e-05		0.000261 ± 7.6e-05	0.000482 ± 9.6e-05	0.000125 ± 2.7e-05	2.45 ± 0.44	
AUAAAAGCGCCAGAACUACAGAAAUGUAGUUGUCGAGGACGAGGUUUAUCGAAUUUUCGGCGGAUGCCUCCAAA	5.14e-05 ± 7.9e-06						
AUAAAAGCGCCAGAACUACAGAAAUGUAGUUGACGAGGAGGAGUUUUAUCGAAUAUUCGGCGGAUGCCUCCAAA	0.000317 ± 4.2e-05		0.000288 ± 4.6e-05	0.000273 ± 3.2e-05	0.000157 ± 4e-05	0.891 ± 0.39	
AUAAAAGCGCCAGAACUACAGAAAUGUAUUUGACGAGGAGGAGGUUUAACGAAUUUUCGGCGGAUGCCUCCAAA	< 1e-05	< 1e-05		< 1e-05			< 1e-05
AUAAAAGCGCCAGAACUACAGAAAUGUAGUCGACGAGGAGGAGGUAUAUCGAAUUUUCGGCGGAUGCCUCCAAA	0.000286 ± 7.3e-06		0.000152 ± 2.9e-05	0.000234 ± 3.3e-05	6.31e-05 ± 9.4e-06	2.23 ± 0.11	
AUAAAAGCGCCAGAACUACAGAAAUGUAGUUGACGAGGAGGAGGUUUAUCGAAUUGUCGGCGGAUGCCUUCAAA	0.00109 ± 0.00036	0.000437 ± 7.8e-05	0.000943 ± 0.0003	0.00182 ± 0.00036	0.000908 ± 0.00022		0.000308 ± 4.6e-05
AUAAAAGCGCCAGAACUACAGAAAUGUAGUUGACGAGGAAGAGGUUUAUCGAAUUGUCGGCGGAUGCCUCCAAA	0.0035 ± 0.00093	0.000189 ± 3e-05	0.00224 ± 0.00044	0.00256 ± 0.00054	0.000577 ± 7.7e-05	2.84 ± 0.95	6e-05 ± 1.3e-05
